Laboratory results from patent US20150132305A1 (ADHERON THERAPEUTICS, published 2015).
No end group written: not given here.

T1: recombinant his-tagged human Cad-11 (R&D Systems) (human, UniProt P55287 54-617)
T1 construct: bought; also called rhCad-11; recombinant human Cad-11; not shown: his tag
T1 sequence: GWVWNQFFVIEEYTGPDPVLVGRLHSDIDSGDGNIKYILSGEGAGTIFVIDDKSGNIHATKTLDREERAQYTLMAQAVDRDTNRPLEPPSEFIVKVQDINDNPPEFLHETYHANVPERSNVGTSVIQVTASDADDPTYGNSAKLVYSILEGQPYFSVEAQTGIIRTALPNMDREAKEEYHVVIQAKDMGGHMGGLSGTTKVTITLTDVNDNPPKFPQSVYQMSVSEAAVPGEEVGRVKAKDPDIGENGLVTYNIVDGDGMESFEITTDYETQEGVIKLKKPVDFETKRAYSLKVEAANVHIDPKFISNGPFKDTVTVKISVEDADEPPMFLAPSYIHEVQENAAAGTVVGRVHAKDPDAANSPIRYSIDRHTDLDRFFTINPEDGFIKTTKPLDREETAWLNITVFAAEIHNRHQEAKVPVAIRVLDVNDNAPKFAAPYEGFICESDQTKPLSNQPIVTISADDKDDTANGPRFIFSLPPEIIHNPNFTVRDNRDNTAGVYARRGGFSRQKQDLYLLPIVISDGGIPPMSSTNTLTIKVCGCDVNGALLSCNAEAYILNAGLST

T2: recombinant Cad-11 EC1 human IgG1 fusion protein (R&D Systems Cat. No. 1790-CA-050) (human, UniProt P55287 54-617, limits assumed)
T2 construct: bought; also called recombinant human Cad-11 EC1; recombinant human Cad-11 fusion protein; not shown: human IgG1 part
T2 sequence: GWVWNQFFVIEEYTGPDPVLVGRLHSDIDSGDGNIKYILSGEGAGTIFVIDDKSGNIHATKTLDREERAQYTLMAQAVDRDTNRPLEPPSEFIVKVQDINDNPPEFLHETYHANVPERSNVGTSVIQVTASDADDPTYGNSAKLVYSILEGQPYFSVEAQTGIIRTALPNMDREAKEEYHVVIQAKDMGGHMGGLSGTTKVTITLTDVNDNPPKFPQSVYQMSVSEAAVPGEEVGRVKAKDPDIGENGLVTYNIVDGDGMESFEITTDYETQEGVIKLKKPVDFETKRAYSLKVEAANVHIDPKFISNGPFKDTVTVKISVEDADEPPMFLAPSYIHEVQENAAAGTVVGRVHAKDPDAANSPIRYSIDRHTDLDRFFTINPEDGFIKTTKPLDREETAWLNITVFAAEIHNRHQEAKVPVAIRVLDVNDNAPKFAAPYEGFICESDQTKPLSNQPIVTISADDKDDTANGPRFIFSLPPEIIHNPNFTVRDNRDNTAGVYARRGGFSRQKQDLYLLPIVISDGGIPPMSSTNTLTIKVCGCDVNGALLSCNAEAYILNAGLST

B1: SDP051 humanized anti-Cad-11 EC1 antibody (Vκ1/VH5) (antibody, IgG4, V domains shown)
VH: EVQLVQSGAEVKKPGASVKVSCKASGYSFTGYFMNWVRQAPGQGLEWIGRINPYTGDTFYNQKFKGRVTITVDKSTSTAYMELSSLRSEDTAVYYCGRLGSRYWYFDVWGQGTTVTVSS
VL: DVLMTQTPLSSPVTLGQPASISCRSSQSIIHSNGNTYLEWYLQKPGQSPQLLIYKVSNRFSGVPDRFTGSGSGTDFTLKISRVEAEDVGVYYCFQGSHVPWTFGQGTKLEIK
notes: humanized IgG4 (S241P), kappa
B2: Cad-9 37-mer peptide linked to BSA (peptide, UniProt Q9ULB4 54-90, looked up)
peptide: GWMWNQFFLLEEYTGTDTQYVGKLHTDQDKGDGNLKY
modifications: also: linked to BSA
notes: also called Cad-9 antigen; Cad-9 peptide
B3: Cad-7 37-mer peptide linked to BSA (peptide, UniProt Q9ULB5 48-84, looked up)
peptide: SWVWNQFFVLEEYMGSDPLYVGKLHSDVDKGDGSIKY
modifications: also: linked to BSA
notes: also called Cad-7 antigen; Cad-7 peptide

Legend:
[1] = target: T1, recombinant his-tagged human Cad-11 …; experiment: SPR, rhCad-11 immobilized, SDP051 as analyte, 2-state reaction model
Procedure: (§1) To determine the affinity of SDP051 for recombinant his-tagged human Cad-11, rhCad-11 (R&D Systems) was immobilized to the chip at a single concentration, high resolution kinetics were determined for SDP051, and a 2-state reaction binding model was successfully fitted to the kinetic data.
(§2) Kinetic data were obtained at a flow rate of 40 μL/min to minimize any potential mass transfer effects. An analyte concentration series ranging from 12.5 nM to 0.195 nM was prepared by serial dilution. Two repeats of the blank (no mAb) and the 3.125 nM (first and last cycle) concentration of the analyte were programmed into the kinetic runs in order to check the stability of both the surface and analyte over the kinetic cycles. The SDP051 was injected over the Fcs for 360 seconds, long enough to observe the curvature in association phase.

[2] = target: T1, recombinant his-tagged human Cad-11 …; experiment: SPR, rhCad-11 immobilized, SDP051 as analyte, 2-state reaction model; ka1
Procedure: as §1, §2

[3] = target: T1, recombinant his-tagged human Cad-11 …; experiment: SPR, rhCad-11 immobilized, SDP051 as analyte, 2-state reaction model; kd1
Procedure: as §1, §2

[4] = target: B3; experiment: ELISA, BSA-coupled 37-mer cadherin peptide coated at 500 ng/ml, A450
Procedure: (§3) REACTI-BIND™ plates (ThermoScientific) were coated with 500 ng/ml of the BSA coupled cadherin 37-mer peptide (NE peptide) corresponding to Cadherins-7, -8, -9, -11, -18, -20, and -24 in 0.05% TWEEN® detergent (EMD, product code 9480) in PBS (pH 7.2) (Gibco(Invitrogen), #20012) at 100 μl volume/well for overnight at 4° C. The peptide containing solution was removed from the well and the plate blocked with a 2% bovine serum albumin (BSA) in PBS, 200 μl volume/well, for 2 h at 22° C. The plate was then washed twice with 200 μl/well of PBS-TWEEN® detergent 0.05% at 22° C. and blotted dry. A dilution series from 5 μg/ml to 8 ng/ml in a volume of 100 μl/well of each the humanized anti-Cad-11 antibodies were incubated in the petide coated wells and incubated at 22° C. for 1 hr. Antibody solution was removed from the wells and the plate washed twice with 200 μl/well of 0.05% TWEEN® detergent-PBS at 22° C. and blotted dry. The goat-anti mouse IgG (Pierce #31432) was added to each well to plate at a 1:1000 dilution, 100 μl/well and incubate at 22° C. for 30 min. The secondary antibody solution was removed and the plate washed twice with 200 μl/well of 0.05% TWEEN® detergent-PBS at 22° C. and blotted dry. The reaction was developed by adding 100 μl/well tetramethylbenzidine (TMB) reagent IgG (Pierce #34022, 1 step Turbo TMB-ELISA) to plate and developed at 22° C. for 5 min.

[5] = target: B2; experiment: as above
Procedure: as §3

[6] = target: T2, recombinant Cad-11 EC1 human IgG1 …; experiment: competition ELISA on coated recombinant human Cad-11 EC1 fusion protein against biotinylated SYN0012 (0.1 µg/ml)
Procedure: (§4) The binding of the purified humanized composite variant antibodies (SDP011 to SDP151) to a recombinant Cad-11 EC1 human IgG1 fusion protein was assessed in a competition binding ELISA. A dilution series from 5 μg/ml to 0.0022 μg/ml of the humanized or control (SYN0012/H1M1) antibodies was premixed with a constant concentration of biotinylated murine anti-Cad-11 antibody, SYN0012/H1M1 (0.1 μg/ml, final concentration), before incubating for 1 hour at room temperature on a NUNC-IIMMUNO™ MAXISORP™ 96 well flat bottom microtitre plate (Fisher Cat. No. DIS-971-030J) pre-coated with 0.25 μg/ml recombinant human Cad-11 EC1 (R&D Systems Cat. No. 1790-CA-050) diluted in PBS. The binding of the biotinylated mAb was detected with streptavidin-HRP (Sigma Cat. No. 55512) and tetramethylbenzidine (TMB) substrate (Invitrogen Cat. No. 00-2023).
(§5) All of the humanized anti-Cad-11 antibodies efficiently competed with SYN0012 for binding to the Cad-11 fusion protein (FIGS. 38A to C). […] The curves were used to calculate IC50 values for each antibody and these were normalized to the IC50 of SYN0012, which was included on each ELISA plate so that comparisons between plates could be made (Table 3). The expression levels of each cell line and the calculated isoelectric point (pI) of each antibody are also shown (Table 3).

[7] = target: T2, recombinant Cad-11 EC1 human IgG1 …; experiment: competition ELISA against biotinylated SYN0012/H1M1 (competitor) on coated fusion protein; text says values are normalised to the IC50 of SYN0012
Procedure: as §4, §5
The relative IC50 was calculated by dividing the value for the test antibody by that of SYN0012. Antibody expression levels given are for static cultures in T flasks. PI are calculated.

[8] = target: B1; experiment: flow cytometry blocking assay: peptide titrated with SDP 051 at 0.5 ug/ml on Cad-11 expressing 431D cells; blocked: binding of SDP051 to cell-surface Cad-11; MFI
Procedure: Cells were the stained on ice for 45 minutes with increasing concentration of either the 37-mer Cad-11 peptide or Cad-7, Cad-8, Cad-9, Cad-18, Cad-20, or Cad-24 peptides with […] SDP051. After staining the cells were washed twice with Hanks balanced salt solution (HBSS) containing 1% fetal bovine solution (FBS), resuspended and then stained with a 100 μl of goat anti-mouse IgG-PE (100× dilution) on ice for 30′ protected from light. After staining the cells with the secondary agent, cells were washed twice with HBSS with 1% FBS, resuspended and fixed in 200 μl of 2% formaldehyde in HBSS with 1% FBS and then analyzed with a BD FACSCALIBUR™ machine.

| binding result [5] | IC50 [7] | binding result [8] | Binder | also measured |
| --- | --- | --- | --- | --- |
| no binding (tested: 5000 ng/ml) | 0.99 µg/mL | – | B1 | Kd [1]: 379 pM; kon [2]: 613000 M⁻¹ s⁻¹; koff [3]: 0.0043 s⁻¹; binding result [4]: no binding (tested: 5000 ng/ml); IC50 (read off the curve) [6]: ~0.2 µg/mL |
| no binding (tested: 5000 ng/ml) | 0.47 µg/mL | – | SDP061 humanized anti-Cad-11 EC1 antibody (Vκ2/VH1) (antibody, IgG4, V domains shown, humanized IgG4 (S241P), kappa) VH: EVQLVQSGPELKKPGASVKISCKASGYSFTGYFMNWVKQAHGQGLEWIGRINPYTGDTFYNQKFKGRATLTVDKSSSTAYMELVSLSSEDSAVYYCGRLGSRYWYFDVWGQGTTVTVSS VL: DVLMTQTPLSSPVTLGQPASISCRSSQSIIHSNGNTYLEWYLQKPGQSPQLLIYKVSNRFSGVPDRFSGSGSGTDFTLKISRVEAEDVGVYYCFQGSHVPWTFGQGTKLEIK | – |
| no binding (tested: 5000 ng/ml) | 0.33 µg/mL | – | SDP071 humanized anti-Cad-11 EC1 antibody (Vκ2/VH2) (antibody, IgG4, V domains shown, humanized IgG4 (S241P), kappa) VH: EVQLVQSGAEVKKPGASVKISCKASGYSFTGYFMNWVKQAPGQGLEWIGRINPYTGDTFYNQKFKGRATLTVDKSTSTAYMELSSLRSEDTAVYYCGRLGSRYWYFDVWGQGTTVTVSS VL: DVLMTQTPLSSPVTLGQPASISCRSSQSIIHSNGNTYLEWYLQKPGQSPQLLIYKVSNRFSGVPDRFSGSGSGTDFTLKISRVEAEDVGVYYCFQGSHVPWTFGQGTKLEIK | – |
| – | – | no binding (tested: about 80000 ng/ml) | B2 | – |
| – | – | no binding (tested: 3000 ng/ml) | B3 | – |
